Experimental data reported in US20120282637A1 (Sanofi, published 2012).
Residue numbers refer to the chain shown, from its start. “And” between values parts separate entries of the source, which are not always exact repeats. Equal entries are not always repeated. One block for each binder: values may come before it.

Columns and labels:
RAGE-Fc [1] = target: T1, RAGE-Fc (human, UniProt Q15109 23-344, limits assumed); assay: competition ELISA, hRAGE-S100A6 interaction
T1 construct: also called hRAGE; not shown: Fc part, detected with anti-hIgG Fc-specific conjugate
T1 sequence (Q15109 23-344 limits assumed): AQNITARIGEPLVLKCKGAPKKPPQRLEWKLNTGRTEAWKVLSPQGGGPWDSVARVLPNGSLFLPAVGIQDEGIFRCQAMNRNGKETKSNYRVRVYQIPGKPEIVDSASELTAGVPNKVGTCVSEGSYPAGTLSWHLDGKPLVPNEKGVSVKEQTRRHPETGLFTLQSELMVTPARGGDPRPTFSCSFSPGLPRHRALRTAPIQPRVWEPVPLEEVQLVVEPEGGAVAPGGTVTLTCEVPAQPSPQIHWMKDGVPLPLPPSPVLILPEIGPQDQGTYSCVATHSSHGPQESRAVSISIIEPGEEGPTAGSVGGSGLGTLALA

mouse sRAGE = mouse sRAGE (mouse, UniProt Q62151 23-340, limits assumed); assay: ELISA, O.D. 450 nm, one bar per species; plate format and antibody concentration not given
Sequence of mouse sRAGE (Q62151 23-340 limits assumed): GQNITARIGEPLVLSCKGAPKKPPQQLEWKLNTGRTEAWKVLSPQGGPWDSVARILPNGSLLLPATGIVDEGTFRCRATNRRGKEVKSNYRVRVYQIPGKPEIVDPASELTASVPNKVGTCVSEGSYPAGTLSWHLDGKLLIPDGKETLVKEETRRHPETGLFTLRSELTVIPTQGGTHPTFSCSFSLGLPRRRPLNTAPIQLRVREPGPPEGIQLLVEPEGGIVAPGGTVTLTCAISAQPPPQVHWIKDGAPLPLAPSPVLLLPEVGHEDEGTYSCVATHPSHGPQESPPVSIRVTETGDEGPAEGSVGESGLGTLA

rat sRAGE = rat sRAGE (rat, UniProt Q63495 23-341, limits assumed); assay: as above
Sequence of rat sRAGE (Q63495 23-341 limits assumed): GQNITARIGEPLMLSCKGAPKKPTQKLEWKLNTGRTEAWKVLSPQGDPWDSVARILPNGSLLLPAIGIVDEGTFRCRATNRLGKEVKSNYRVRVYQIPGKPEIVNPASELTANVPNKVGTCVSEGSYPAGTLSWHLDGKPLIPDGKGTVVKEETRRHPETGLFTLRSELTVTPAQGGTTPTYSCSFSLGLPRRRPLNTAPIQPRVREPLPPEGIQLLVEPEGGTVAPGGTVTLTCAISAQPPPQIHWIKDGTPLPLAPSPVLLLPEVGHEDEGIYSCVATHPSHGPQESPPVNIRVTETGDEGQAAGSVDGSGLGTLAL

[2] = target: T2, sRAGE (V-C1-C2) lot LP08062 (human, UniProt Q15109 23-331, limits assumed); assay: SPR (Biacore), mAb captured on anti-mouse Fc, sRAGE 15 nM, Langmuir 1:1
T2 construct: domain: V-C1-C2; also called Human RAGE; LP08062 (Rage)
T2 sequence (Q15109 23-331 limits assumed): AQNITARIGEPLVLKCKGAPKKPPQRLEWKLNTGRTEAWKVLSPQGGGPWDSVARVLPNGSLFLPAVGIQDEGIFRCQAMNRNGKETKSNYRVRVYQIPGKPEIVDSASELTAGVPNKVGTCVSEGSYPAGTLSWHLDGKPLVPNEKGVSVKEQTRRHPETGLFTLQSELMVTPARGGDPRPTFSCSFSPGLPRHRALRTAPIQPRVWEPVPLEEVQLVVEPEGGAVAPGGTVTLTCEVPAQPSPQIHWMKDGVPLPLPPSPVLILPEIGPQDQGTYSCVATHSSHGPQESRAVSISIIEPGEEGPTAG
Procedure: The assay is based on a capture assay using immobilized anti-mouse Fc IgG on CM5 chip. For immobilization of anti-Fc antibody HBS-EP was used as running buffer. Standard amine coupling to a CM5 chip was carried out at a contact time of 11 min and a flow rate of 10 μl/min. 10 mM Sodium Acetate pH 5.0 was used as immobilization buffer. The protein concentration (anti-mouse Fc, Biacore BR-1008-38) was 100 μg/mL.
For binding analysis SN anti-RAGE mAb diluted in running buffer at 1/10 (flow rate 5 μl/min) and sRAGE (V-C1-C2) lot LP08062 diluted in running buffer at 15 nM (flow rate 50 μl/min) was used as […], respectively (running buffer: HBS-P+BSA 12 mg/mL+CM Dextran 12 mg/mL and Regeneration solution: 10 mM Glycine pH 1.7). Langmuir 1:1 analysis was used as fitting model.

RAGE-Fc [3] = target: T1, RAGE-Fc; assay: competition ELISA, RAGE-Fc binding to coated S100A6
Procedure: (§1) For the S100A6 Competition ELISA Assay wells have been coated with S100A6 at 0.5 μg/well. Thereafter, RAGE-Fc at 10 μg/mL and competing mAb at 10 μg/mL have been pre-incubated at room temperature for 30 min. The mixture was transferred into S100A6-coated plates and incubated under agitation at room temperature for 2 hours. Bound RAGE-Fc was detected with anti-hIgG Fc-specific-POD using TMB (3, 3′, 5, 5′-Tetramethylbenzidine) at 450 nm.
For this, coating with S100A6 was carried out as detailed above. RAGE-Fc at 10 μg/mL was incubetd with competing mAb (2-fold serial dilutions starting at 100 μg/ml at room temperature for 2 hours. Binding was detected by anti IgG Fc-specific antibody peroxydase conjugate using TMB1 component HRP at 450 nm.

RAGE-Fc [4] = target: T1, RAGE-Fc; assay: competition ELISA against S100A6, mAb 10 µg/mL
Procedure: as §1

RAGE-Fc [5] = target: T1, RAGE-Fc; assay: competition ELISA, hRAGE-S100B interaction
RAGE C2 domain = target: T3, RAGE C2 domain (UniProt Q15109 235-327, limits assumed); assay: domain mapping, Table 1
T3 construct: domain: C2 domain
T3 sequence (Q15109 235-327 limits assumed): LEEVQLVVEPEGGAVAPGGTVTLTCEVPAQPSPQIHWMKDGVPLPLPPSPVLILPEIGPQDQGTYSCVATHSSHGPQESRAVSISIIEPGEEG

RAGE V domain = target: T4, RAGE V domain (UniProt Q15109 23-121, limits assumed); assay: domain mapping, Table 1
T4 construct: domain: V domain
T4 sequence (Q15109 23-121 limits assumed): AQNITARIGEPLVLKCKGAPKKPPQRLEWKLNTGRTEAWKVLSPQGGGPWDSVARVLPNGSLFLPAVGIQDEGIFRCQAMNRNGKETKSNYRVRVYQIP

RAGE-Fc [6] = target: T1, RAGE-Fc; assay: competition ELISA, RAGE-S100B interaction
RAGE-Fc [7] = target: T1, RAGE-Fc; assay: competition ELISA, RAGE-S100A6 interaction

maximum inhibitory effect (RAGE-Fc [1]): ≤ 50%
binding result (mouse sRAGE): no binding (tested: not given)
binding result (rat sRAGE): no binding (tested: not given)
Kd [2]: 0.234 nM
koff [2]: 0.000758 s⁻¹
kon [2]: 3.24e+06 M⁻¹ s⁻¹
IC50 (RAGE-Fc [3]): 8.33 µg/mL
inhibitory effect (RAGE-Fc [4]): > 20%
IC50 (RAGE-Fc [5]): 0.128 µg/mL
binding result (RAGE C2 domain): no binding
binding result (RAGE V domain): no binding
IC50 (RAGE-Fc [6]): 0.8 nM
IC50 (RAGE-Fc [7]): 55.5 nM
B1: 166 RAGE-1 (antibody, V domains shown)
VH: QVQLQQSGPELVKPGTSVRISCKASGYTFTSYYIHWVKQRPGQGLEWIGWIYPGNVITNYHEKFKGKASLTADKSSSTAYMQLSSLTSEDSAVYFCAREDPFAYWGQGTLVTVSA
VL: NIMMTQSPSSLAVSAGEKVTMSCKSSQSVLYSSNQKNYLAWYQQKPGQSPKLLIYWASTRESGVPDRFTGSGSGTDFTLTISSVQAEDLAVYYCHQYLSSYTFGGGTKLEIK
notes: Anti-RAGE monoclonal antibody from a hybridoma, captured by anti-mouse Fc; also called LP08122; LP08122D

binding result (mouse sRAGE): no binding (tested: not given)
binding result (rat sRAGE): no binding (tested: not given)
Kd [2]: 0.236 nM
koff [2]: 0.00136 s⁻¹
kon [2]: 5.76e+06 M⁻¹ s⁻¹
B2: 130 RAGE-1 (antibody, V domains shown)
VH: EVQLVESGGGLVKPGGSLKLSCAASGFTFSSYVMSWVRQSPEKRLEWVAEISSGGSYTYYPDTVTGRFTISRDNDKNTLYLEMSSLRSEDTAMYYCARPPYGKDAMDYWGQGTSVTVSS
VL: QIVLTQSPAIMSASPGEKVTMTCSASSSVSYMHWYQQKSGTSPKRWISDTSKLASGVPARFSGSGSGTSYSLTISSMEAEDAATYYCQQWSSNPPTFGGGTKLEIK
notes: Anti-RAGE monoclonal antibody from a hybridoma, captured by anti-mouse Fc; also called Protein 130 RAGE-1

Kd [2]: 0.512 nM
koff [2]: 0.00199 s⁻¹
kon [2]: 3.89e+06 M⁻¹ s⁻¹
IC50 (RAGE-Fc [5]): 0.108 µg/mL
binding result (RAGE C2 domain): no binding
binding result (RAGE V domain): no binding
IC50 (RAGE-Fc [6]): 0.7 nM
B3: 253 RAGE-1 (antibody, V domains shown)
VH: QVQLQQSGPELVKPGASVRISCKASGYTFTDYYIHWVKQRPGQGLEWIGWIYPGNVITKYNEKFKGKATLTADKSSSTAYMQLSSLTSEDSAVYFCARYDYDYAMDYWGQGTSVTVSS
VL: DIVMSQSPSSLAVSVGEKVTMSCKSSQTLLYSSNQKNYLAWYQQKPGQSLKLLIYWASTRESGVPDRFAGSGSGTDFTLTISSVKAEDLAVYYCQQYFGYPYTFGGGTKLEIK
notes: Anti-RAGE monoclonal antibody from a hybridoma, captured by anti-mouse Fc; also called LP08127

binding result (mouse sRAGE): no binding (tested: not given)
binding result (rat sRAGE): no binding (tested: not given)
Kd [2]: 0.678 nM
koff [2]: 0.00227 s⁻¹
kon [2]: 3.35e+06 M⁻¹ s⁻¹
binding result (RAGE C2 domain): no binding
B4: 173 RAGE-1 (antibody, V domains shown)
VH: EVKLEESGGGLVQPGGSMKLSCVASGFTFSNYWMNWVRQSPEKGLEWVAEIRLKSNNYATHYAESVKGRFTISRDDSKSSVYLQMNDLRAEDPGIYYCIRDYGNYAMDHWGQGTSVTVSS
VL: DIVMTQSQKFMSTSVGDRVSVTCKASQNVGTNVAWYQQKPGQSPKALIYSASYRYSGVPDRFTGSGSGTDFTLTISNVQSEDLAEYFCQQYNSYPLTFGAGTKLELK
notes: Anti-RAGE monoclonal antibody from a hybridoma, captured by anti-mouse Fc; also called LP08107

binding result (mouse sRAGE): no binding (tested: not given)
binding result (rat sRAGE): no binding (tested: not given)
Kd [2]: 0.556 nM
koff [2]: 0.00199 s⁻¹
kon [2]: 3.58e+06 M⁻¹ s⁻¹
B5: 250 RAGE-1 (antibody, V domains shown)
VH: B4 VH with D87N, P93T, Y97F, H109Y
VL: B4 VL with Y86F
notes: Anti-RAGE monoclonal antibody from a hybridoma, captured by anti-mouse Fc; also called Protein 250 RAGE-1

binding result (mouse sRAGE): no binding (tested: not given)
binding result (rat sRAGE): no binding (tested: not given)
Kd [2]: 0.666 nM
koff [2]: 0.00227 s⁻¹
kon [2]: 3.41e+06 M⁻¹ s⁻¹
B6: 347 RAGE-1 (antibody, V domains shown)
VH: QVQLQQSGAELAKPGASVKMSCRASGYTFTDYWMHWVKQRPGQGLEWIGFINPSTVYTEYIPKFKDKATLTADKSSSTAYMQLSSLTSEDSAVYYCARSDGGWYFDVWGAGTTVTVSS
VL: DIQMTQSSSYLSVSLGGRVTITCKASDRINYWLAWYQQKPGNAPRLLISGATTLETGVPSRFSGSGSGKDYTLSITSLQTEDVATYYCQQYWSTPYTFGGGTKLELK
notes: Anti-RAGE monoclonal antibody from a hybridoma, captured by anti-mouse Fc

binding result (mouse sRAGE): no binding (tested: not given)
binding result (rat sRAGE): no binding (tested: not given)
Kd [2]: 0.319 nM
koff [2]: 0.00177 s⁻¹
kon [2]: 5.54e+06 M⁻¹ s⁻¹
B7: 316 RAGE-1 (antibody, V domains shown)
VH: QVQLQQSGPELVRPGASVKMSCKASGYTFTSYWMHWVKQRPGQGLEWIGMIDPSNSETRLNQKFKDKATLNVDKSSNTAYMQLSSLTSEDSAVYYCARNFYGSSLRVWGAGTTVTVSS
VL: DIVLTQSPASLAVSLGQRATISCRASKSVSISGYSYLHWNQQKPGQSPKLLIYLASNLESGVPARFSGSGSGTDFTLNIHPVEEEDAATYYCQHSRELPYTFGGGTKLEIK
notes: Anti-RAGE monoclonal antibody from a hybridoma, captured by anti-mouse Fc; also called Protein 316 RAGE-1

Kd [2]: 0.687 nM
koff [2]: 0.00265 s⁻¹
kon [2]: 3.86e+06 M⁻¹ s⁻¹
inhibitory effect (RAGE-Fc [4]): > 20%
binding result (RAGE C2 domain): no binding
B8: 152 RAGE-1 (antibody, V domains shown)
VH: DVQLQESGPDLVKPSQSLSLTCTVTGYSITSGYSWHWIRQFPGNKLEWMGYIHYSGSTNYNPSLKSRISITRDTSKNQFFLQLNSVTTEDTATYYCARGGDFAYWGQGTLVTVSA
VL: DIVLTQSPASLAVSLGQRATISCRASKSVGTSDSSYMHWYQQKPGQPPKLLIYLASNLESGVPARFSGSGSGTDFTLNIHPVEEEDAATYYCQHSRELYTFGGGTKLEIK
notes: Anti-RAGE monoclonal antibody from a hybridoma, captured by anti-mouse Fc; also called LP08104; Protein 152 RAGE-1

Kd [2]: 0.303 nM
koff [2]: 0.00157 s⁻¹
kon [2]: 5.19e+06 M⁻¹ s⁻¹
B9: 140 RAGE-1 (antibody, V domains shown)
VH: QVQLQQPGAELVKPGASVRLSCKASGYTFTSYWMHWVKQRPGQGLEWIGEINPSNGRTNYNEKFKSKATLTVDKSSSTAYMQLSSLTSEDSAVYYCARDGLGYRPIAMDYWGQGTSVTVSS
VL: QIVLTQSPAIMSASPGEKVTISCSASSSVSYMYWYQQKPGSSPKPWIYRTSNLASGVPARFSGSGSGTSYSLTISSMEAEDAATYYCQQYHSYPPMYTFGGGTKLEIK
notes: Anti-RAGE monoclonal antibody from a hybridoma, captured by anti-mouse Fc; also called Protein 140 RAGE-1

Kd [2]: 0.462 nM
koff [2]: 0.00123 s⁻¹
kon [2]: 2.66e+06 M⁻¹ s⁻¹
B10: 95 RAGE-1 (antibody, V domains shown)
VH: QVQLQQPGAELVKPGASVKLSCKASGYTFTSYWMHWVKQRPGQGLEWIGESNPSNGRTNYNEKFKNKATLTVDKSSSTAYMQLSSLTSEDSAVYYCARAPYYGFDYWGQGTTLTVSS
VL: QAVVTQESALTTSPGETVTLTCRSSTGAVTTSNYANWVQEKPDHLFTGLTGGTNNRAPGVPARFSGSLIGDKAALTITGAQTEDEAIYFCALWYSNHWVFGGGTKLTVL
notes: Anti-RAGE monoclonal antibody from a hybridoma, captured by anti-mouse Fc; also called Protein 95 RAGE-1

binding result (mouse sRAGE): no binding (tested: not given)
binding result (rat sRAGE): no binding (tested: not given)
Kd [2]: 0.596 nM
koff [2]: 0.00171 s⁻¹
kon [2]: 2.87e+06 M⁻¹ s⁻¹
IC50 (RAGE-Fc [5]): 0.097 µg/mL and 0.64 nM
binding result (RAGE C2 domain): no binding
binding result (RAGE V domain): no binding
IC50 (RAGE-Fc [6]): 0.6 nM
B11: 326 RAGE-1 (antibody, V domains shown)
VH: EVKLVESGGGLVKPGGSLKLSCAASGFAFSSYDMSWVRQTPEKRLEWVATISSGGSYTSYPDSVQGRFTISRDNARNTLYLQMSSLRSEDTALYYCASSQLPPYAMDYWGQGTSVTVSS
VL: DIVMTQSQKFMSTSVGDRVSITCKASQNVGTAVAWYQQKPGQSPKLLIYSASNRYTGVPDRFTGSGSGTDFTLTISNMQSEDLADYFCQQYSSYPLLTFGAGTKLELK
notes: Anti-RAGE monoclonal antibody from a hybridoma, captured by anti-mouse Fc; also called LP08137; Protein 326 RAGE-1
